Assay results from patent US20030068630A1 (MYRIAD GENETICS, published 2003).

Target: T1, Mineralocorticoid receptor (MCR) amino acids 603-985, Gal4 DNA-binding-domain bait fusion (Saccharomyces cerevisiae, UniProt P04386 1-147; P08235 603-984)
T1 construct: range 1-147;range 603-985; Bait made as a C-terminal fusion to Gal4 DBD in vector pGBTQ; also called MCR AA 603-985
Assay: yeast two-hybrid (Gal4, beta-galactosidase read-out) with 4 uM aldosterone; bait MCR AA 603-985
Description: DNA was prepared from each clone, transformed by electroporation into E. coli strain KC8 (Clontech KC8 electrocompetent cells, cat. # C2023-1), and the cells were selected on ampicillin-containing plates in the absence of either tryptophane (selection for the bait plasmid) or leucine (selection for the brain library plasmid). DNA for both plasmids was prepared and sequenced by di-deoxynucleotide chain termination method. The identity of the bait cDNA insert was confirmed and the cDNA insert from the brain library plasmid was identified using BLAST program against public nucleotides and protein databases. Plasmids from the brain library (preys) were then individually transformed into yeast cells together with a plasmid driving the synthesis of lamin fused to the Gal4 DNA binding domain. Clones that gave a positive signal after β-galactosidase assay were considered false-positives and discarded. Plasmids for the remaining clones were transformed into yeast cells together with plasmid for the original bait. Clones that gave a positive signal after ,galactosidase assay were considered true positives.
A yeast two-hybrid system as described in Example 1 was performed in the presence of aldosterone. […]

B1: PN19395 amino acids 120-397, Gal4 activation-domain prey fusion (other, Saccharomyces cerevisiae, not shown: small tags and cut ends)
chain: ANFNQSGNIADSSLSFTFTNSSNGPNLITTQTNSQALSQPIASSNVHDNFMNNEITASKIDDGNNSKPLSPGWTDQTAYNAFGITTGMFNTTTMDDVYNYLFDDEDTPPNPKKELMPGAGLLPIPTPNPLTTLGVSLSSLGAIPAAALDPNIATLGEIPQPPLMGNVDPSKIDEIRRTVYVGNLNSQTTTADQLLEFFKQVGEVKFVRMAGDETQPTRFAFVEFADQNSVPRALAFNGVMFGDRPLKINHSNNAIVKPPEMTPQAAAKELEEVMKRVREAQSFISAAIEPESGKSNERKGGRSRSHTRSKSRSSSKSHSRRKRSQSKHRSRSHNRSRSRQKDRRRSKSPHKKRSKSRERRKSRSRSHSRDKRKDTREKIKEKERVKEKDREK
notes: range 768-881; Novel 624 amino acid protein; Clone from a human brain cDNA library in pACT2
B1: binds.
